Data on 1 molecule can be found in patent publication US20240400693A1.

What all share (experiment): cell-based or functional assay
Assay [1] has as its target HLA-DQ2.5 on IHW09023 cells loaded with gamma 4d gliadin peptide (human; wheat).
The target in assay [2] is HLA-DQ2.5 on IHW09023 cells loaded with gamma 1 gliadin peptide (human; wheat).
In assay [3] the target is HLA-DQ2.5 on IHW09023 cells loaded with 33mer gliadin peptide (human; wheat).
The target in assay [4] is HLA-DQ2.5 on IHW09023 cells loaded with omega1/2 gliadin peptide (human; wheat).
Assay [5] addresses HLA-DQ2.5 on IHW09023 cells loaded with gamma 2 gliadin peptide (human; wheat).
Assay [6] addresses HLA-DQ2.5 on IHW09023 cells loaded with gamma 4a gliadin peptide (human; wheat).
Assay [7] deals with HLA-DQ2.5 on IHW09023 cells loaded with BC hordein peptide (human; barley).
The target in assay [8] is HLA-DQ2.5 on IHW09023 cells loaded with gamma 3 gliadin peptide (human; wheat).

B1: DQN034425 (antibody, V domains shown)
VH: QVQLVESGGGVVQPGRSLRLSCAASGFTFSSSYWMCWVRQAPGQGLEWMGCVYGGSDTTYYASWTKGRFTISRDNSKNTLYLQMNSLRAEDTAVYYCARDPLNYYYYGELNLWGQGTLVTVSS
VL: DIQMTQSPSSLSASVGDRVTITCQATENIYSGLAWYQQKPGKAPKLLIYYVSTLASGIPARFSGSGSGTDFTLTISSLEPEDFAVYYCQTYHDISNVTFGQGTKVEIK
Turning to B1, the IC50 (ng/mL), γ4d gliadin TCR, 100 µM γ4d gliadin in assay [1] was greater than 20000 ng/mL. In assay [2], this molecule yielded an IC50 (ng/mL), γ1 gliadin TCR, 250 nM γ1 gliadin greater than 20000 ng/mL. In assay [3], the IC50 (ng/mL), α1a gliadin TCR, 250 nM 33mer gliadin was found to be 10.6 ng/mL; the IC50 (ng/mL), α1b gliadin TCR, 250 nM 33mer gliadin is 46.4 ng/mL; the IC50 (ng/mL), α2 gliadin TCR, 250 nM 33mer gliadin is 1.75 ng/mL. In addition, in assay [4], the IC50 (ng/mL), ω1 gliadin TCR, 25 µM ω1/2 gliadin worked out at 3.12 ng/mL and the IC50 (ng/mL), ω2 gliadin TCR, 250 nM ω1/2 gliadin was greater than 500 ng/mL. In addition, in assay [5], the IC50 (ng/mL), γ2 gliadin TCR, 250 nM γ2 gliadin is greater than 20000 ng/mL. The same molecule displayed an IC50 (ng/mL), γ4a gliadin TCR, 25 µM γ4a gliadin in assay [6] greater than 20000 ng/mL. The molecule further had an IC50 (ng/mL), BC hordein TCR, 250 nM BC hordein in assay [7] greater than 20000 ng/mL. In addition, the IC50 (ng/mL), γ3 gliadin TCR, 100 µM γ3 gliadin in assay [8] was 3100 ng/mL.
